Measured values reported in patent US11655308B2, “HM-3 fusion protein and application thereof” (TASLY BIOPHARMACEUTICALS CO., LTD., priority 2017, dated 2023).
Where “and” joins values, the source holds several entries; their conditions need not be identical. Equal entries are not always repeated.

Assay: Pharmacokinetics after single subcutaneous injection (double-antibody sandwich ELISA)
Experimental: (1) 18 SD rats (half male and half female) were purchased and fed for one week.
(2) Rats were divided into 3 groups, half male and half female, and weight of rats were recorded respectively.
The blood was centrifuged at 12000 rpm/min to take 200 μL of supernatant, then the supernatant was diluted with PBS solution according to a ratio of 1:3, and finally placed in an EP tube and stored in a −80° C. refrigerator.
(4) Biological samples were measured by double-antibody sandwich ELISA.
(1) Coating, HM-3 monoclonal antibody was diluted with a coating buffer (CBS) in certain concentration, added to an ELISA plate and coated overnight.
(2) Plate washing, the coating buffer was discarded, and the plate was washed by PBST for 3 times, and then dried by patting.
(3) Sealing, a blocking buffer was added for sealing at 37.5° C., the plate washing process was repeated and the plate was dried by patting.
(4) Addition of samples to be measured, the samples to be measured were added to the ELISA plate with multiple wells, and then incubated at 37.5° C.; the plate washing process was repeated and the plate was dried by patting.
(5) Addition of a secondary antibody, the secondary antibody diluted proportionally was added for incubation at 37.5° C. The plate washing process was repeated and the plate was dried by patting.
(6) Addition of the enzyme-labeled secondary antibody for reaction, the HRP-labeled secondary antibody which was diluted by 5% skim milk powder solution according to certain proportion was added for incubation at 37.5° C. The plate washing process was repeated and the plate was dried by patting.
(7) Addition of a substrate, a TMB substrate in certain volume L was added for reaction in the dark.
(8) Termination of the reaction, a certain amount of stop buffer was added to terminate the reaction.
(9) Detection, read OD450 nm with a microplate reader.

Substance: mIgG4-Fc-(GGGGS)3-HM-3 [TSL-4]
- Plasma concentration (12.5 mg/kg sc, 16.00 h, single rats No. 1-5): 2587 ng/mL and 3719 ng/mL and 6053 ng/mL and 4976 ng/mL and 14124 ng/mL
- Plasma concentration (12.5 mg/kg sc, 20.00 h, Mean): 5407 ng/mL
- Plasma concentration (12.5 mg/kg sc, 20.00 h, single rats No. 1-5): 1900 ng/mL and 3086 ng/mL and 5605 ng/mL and 3962 ng/mL and 12480 ng/mL
- Plasma concentration (12.5 mg/kg sc, 24.00 h, Mean): 4248 ng/mL
- Plasma concentration (12.5 mg/kg sc, 24.00 h, single rats No. 1-5): 1822 ng/mL and 2513 ng/mL and 2747 ng/mL and 3966 ng/mL and 10192 ng/mL
- Plasma concentration (12.5 mg/kg sc, 28.00 h, Mean): 1907 ng/mL
- Plasma concentration (12.5 mg/kg sc, 28.00 h, single rats No. 1-5): 336 ng/mL and 1653 ng/mL and 766 ng/mL and 2703 ng/mL and 4077 ng/mL
- Plasma concentration (12.5 mg/kg sc, 41.00 h, Mean): 746 ng/mL
- Plasma concentration (12.5 mg/kg sc, 41.00 h, single rats No. 1-5): 241 ng/mL and 700 ng/mL and 417 ng/mL and 1185 ng/mL and 1189 ng/mL
- Plasma concentration (12.5 mg/kg sc, 53.00 h, Mean): 402 ng/mL
- Plasma concentration (12.5 mg/kg sc, 53.00 h, single rats No. 1-5): 131 ng/mL and 542 ng/mL and 247 ng/mL and 734 ng/mL and 357 ng/mL
- Plasma concentration (12.5 mg/kg sc, 65.00 h, Mean): 330 ng/mL
- Plasma concentration (12.5 mg/kg sc, 65.00 h, single rats No. 1-5): 127 ng/mL and 396 ng/mL and 181 ng/mL and 648 ng/mL and 299 ng/mL
- Plasma concentration (12.5 mg/kg sc, 77.00 h, Mean): 261 ng/mL
- Plasma concentration (12.5 mg/kg sc, 77.00 h, single rats No. 1-5): 64 ng/mL and 285 ng/mL and 160 ng/mL and 505 ng/mL and 290 ng/mL
- AUC 0-77 (12.5 mg/kg single sc): 116.1901 µg·h/mL
- AUC 0-∞ (12.5 mg/kg single sc): 128.4302 µg·h/mL
- MRT 0-77 (12.5 mg/kg single sc): 18.248 h
- MRT 0-∞ (12.5 mg/kg single sc): 20.882 h
- Tmax (12.5 mg/kg single sc): 7 ± 0.707 h
- ka (12.5 mg/kg single sc): 0.247
- t½ka (absorption half-life) (12.5 mg/kg single sc): 3.249 h
- t½ke (elimination half-life) (12.5 mg/kg single sc): 32.321 ± 4.935 h
- α, ke (12.5 mg/kg single sc): 0.149
- Plasma concentration (37.5 mg/kg sc, 0.50 h, Mean): 1402 ng/mL
- Plasma concentration (37.5 mg/kg sc, 0.50 h, single rats No. 1-5): 1180 ng/mL and 1202 ng/mL and 1816 ng/mL and 1534 ng/mL and 1277 ng/mL
- Plasma concentration (37.5 mg/kg sc, 1.00 h, Mean): 2169 ng/mL
- Plasma concentration (37.5 mg/kg sc, 1.00 h, single rats No. 1-5): 1974 ng/mL and 1514 ng/mL and 2370 ng/mL and 1151 ng/mL and 3838 ng/mL
- Plasma concentration (37.5 mg/kg sc, 3.00 h, Mean): 13349 ng/mL
- Plasma concentration (37.5 mg/kg sc, 3.00 h, single rats No. 1-5): 23044 ng/mL and 13341 ng/mL and 9819 ng/mL and 5861 ng/mL and 14678 ng/mL
- Plasma concentration (37.5 mg/kg sc, 5.00 h, Mean): 19696 ng/mL
- Plasma concentration (37.5 mg/kg sc, 5.00 h, single rats No. 1-5): 36313 ng/mL and 18726 ng/mL and 10891 ng/mL and 12949 ng/mL and 19600 ng/mL
- Plasma concentration (37.5 mg/kg sc, 6.00 h, Mean): 27920 ng/mL
- Plasma concentration (37.5 mg/kg sc, 6.00 h, single rats No. 1-5): 44277 ng/mL and 20173 ng/mL and 20450 ng/mL and 16158 ng/mL and 38541 ng/mL
- Plasma concentration (37.5 mg/kg sc, 7.00 h, Mean): 35272 ng/mL
- Plasma concentration (37.5 mg/kg sc, 7.00 h, single rats No. 1-5): 64960 ng/mL and 21479 ng/mL and 38009 ng/mL and 22359 ng/mL and 29552 ng/mL
- Plasma concentration (37.5 mg/kg sc, 8.00 h, Mean): 30478 ng/mL
- Plasma concentration (37.5 mg/kg sc, 8.00 h, single rats No. 1-5): 62784 ng/mL and 25446 ng/mL and 31080 ng/mL and 12944 ng/mL and 20137 ng/mL
- Plasma concentration (37.5 mg/kg sc, 10.00 h, Mean): 24736 ng/mL
- Plasma concentration (37.5 mg/kg sc, 10.00 h, single rats No. 1-5): 44656 ng/mL and 21055 ng/mL and 21153 ng/mL and 10006 ng/mL and 26810 ng/mL
- Plasma concentration (37.5 mg/kg sc, 12.00 h, Mean): 19172 ng/mL
- Plasma concentration (37.5 mg/kg sc, 12.00 h, single rats No. 1-5): 36576 ng/mL and 17149 ng/mL and 17361 ng/mL and 8919 ng/mL and 15856 ng/mL
- Plasma concentration (37.5 mg/kg sc, 16.00 h, Mean): 11084 ng/mL
- Plasma concentration (37.5 mg/kg sc, 16.00 h, single rats No. 1-5): 13903 ng/mL and 7767 ng/mL and 12942 ng/mL and 6885 ng/mL and 13925 ng/mL
- Plasma concentration (37.5 mg/kg sc, 20.00 h, Mean): 7721 ng/mL
- Plasma concentration (37.5 mg/kg sc, 20.00 h, single rats No. 1-5): 9514 ng/mL and 3313 ng/mL and 9915 ng/mL and 4605 ng/mL and 11259 ng/mL
- Plasma concentration (37.5 mg/kg sc, 24.00 h, Mean): 4523 ng/mL
- Plasma concentration (37.5 mg/kg sc, 24.00 h, single rats No. 1-5): 4801 ng/mL and 3205 ng/mL and 5617 ng/mL and 3076 ng/mL and 5918 ng/mL
- Plasma concentration (37.5 mg/kg sc, 28.00 h, Mean): 2285 ng/mL
- Plasma concentration (37.5 mg/kg sc, 28.00 h, single rats No. 1-5): 1952 ng/mL and 2730 ng/mL and 3953 ng/mL and 1833 ng/mL and 959 ng/mL
- Plasma concentration (37.5 mg/kg sc, 41.00 h, Mean): 920 ng/mL
- Plasma concentration (37.5 mg/kg sc, 41.00 h, single rats No. 1-5): 780 ng/mL and 912 ng/mL and 1824 ng/mL and 779 ng/mL and 303 ng/mL
- Plasma concentration (37.5 mg/kg sc, 53.00 h, Mean): 407 ng/mL
- Plasma concentration (37.5 mg/kg sc, 53.00 h, single rats No. 1-5): 431 ng/mL and 466 ng/mL and 510 ng/mL and 391 ng/mL and 237 ng/mL
- Plasma concentration (37.5 mg/kg sc, 65.00 h, Mean): 312 ng/mL
- Plasma concentration (37.5 mg/kg sc, 65.00 h, single rats No. 1-5): 357 ng/mL and 301 ng/mL and 370 ng/mL and 291 ng/mL and 243 ng/mL
- Plasma concentration (37.5 mg/kg sc, 77.00 h, Mean): 215 ng/mL
- Plasma concentration (37.5 mg/kg sc, 77.00 h, single rats No. 1-5): 269 ng/mL and 253 ng/mL and 169 ng/mL and 244 ng/mL and 138 ng/mL
- AUC 0-77 (37.5 mg/kg single sc): 166.338 µg·h/mL
- AUC 0-∞ (37.5 mg/kg single sc): 176.11 ± 39.59645 µg·h/mL
- MRT 0-77 (37.5 mg/kg single sc): 13.988 h
- MRT 0-∞ (37.5 mg/kg single sc): 15.755 h
- Tmax (37.5 mg/kg single sc): 7 ± 0.707 h
- ka (37.5 mg/kg single sc): 0.116
- t½ka (absorption half-life) (37.5 mg/kg single sc): 3.079 h
- t½ke (elimination half-life) (37.5 mg/kg single sc): 34.356 ± 1.578 h and 34.355 h
- α, ke (37.5 mg/kg single sc): 0.197
- pharmacokinetic characteristics (4.17, 12.5, 37.5 mg/kg sc): consistent with linear pharmacokinetic characteristics
